Test [1] has as its target HAdV-D10 fiber protein (human adenovirus type 10 (HAdV-D10)). The test can be described thus: cryo-EM structure.
The target in test [2] is HAdV-D10 penton base (human adenovirus type 10 (HAdV-D10)). The test can be described thus: cryo-EM structure.

We go through two substances from article doi:10.1101/2025.09.20.677498.

Take “HAdV-D10 fiber protein (natural protein)”: the stoichiometry N in test [1] came out at 3.

In test [2], HAdV-D10 penton base (natural protein) yielded a stoichiometry N of 5.

A word on the stoichiometry N: it is a count of units in the complex or per binding partner.
